For one protein, Km results are on record in patent US20120213763A1 (COUNCIL OF SCIENTIFIC AND INDUSTRIAL RESEARCH, published 2012).

In data set [1] the target is PEG Variants of SEQ ID NO 22 (PEGylated Cysteine variants of fibrin domain fusion form of SK).
Data set [2] has as its target T1, PEGylated SK C-383 Cys (SEQ ID NO 492), Cys at C + 1 position of SK 1-383, G3.
T1 chain: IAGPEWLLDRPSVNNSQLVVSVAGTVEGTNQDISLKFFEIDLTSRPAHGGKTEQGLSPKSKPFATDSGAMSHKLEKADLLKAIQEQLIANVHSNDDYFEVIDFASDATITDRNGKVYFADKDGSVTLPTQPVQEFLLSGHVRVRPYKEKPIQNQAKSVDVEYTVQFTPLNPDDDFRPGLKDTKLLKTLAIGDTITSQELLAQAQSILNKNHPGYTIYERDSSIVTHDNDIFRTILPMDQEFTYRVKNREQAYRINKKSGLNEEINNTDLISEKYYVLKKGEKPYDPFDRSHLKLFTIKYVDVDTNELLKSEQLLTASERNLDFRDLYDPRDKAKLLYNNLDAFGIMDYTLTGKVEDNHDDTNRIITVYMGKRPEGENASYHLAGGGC

Data set [3] addresses T2, PEGylated SK D173C (SEQ ID NO 39).
T2 chain: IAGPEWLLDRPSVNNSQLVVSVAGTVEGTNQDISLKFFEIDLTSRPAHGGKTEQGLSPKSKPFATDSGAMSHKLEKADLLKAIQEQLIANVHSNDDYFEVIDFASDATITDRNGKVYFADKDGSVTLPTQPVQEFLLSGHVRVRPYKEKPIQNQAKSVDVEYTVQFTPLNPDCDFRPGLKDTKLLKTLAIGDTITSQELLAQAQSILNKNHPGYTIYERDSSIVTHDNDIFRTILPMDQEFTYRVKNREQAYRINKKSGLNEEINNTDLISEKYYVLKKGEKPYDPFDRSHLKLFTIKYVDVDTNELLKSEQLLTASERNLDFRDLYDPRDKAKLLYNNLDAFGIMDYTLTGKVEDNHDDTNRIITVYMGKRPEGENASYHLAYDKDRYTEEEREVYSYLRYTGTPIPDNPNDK

In data set [4] the target is T3, PEGylated SK K121C (SEQ ID NO 35).
T3 chain: T2 chain with K121C, C173D

Data set [5] addresses T4, PEGylated SK N-Cys (SEQ ID NO 489), Cys at N - 1 position in SK.
T4 chain: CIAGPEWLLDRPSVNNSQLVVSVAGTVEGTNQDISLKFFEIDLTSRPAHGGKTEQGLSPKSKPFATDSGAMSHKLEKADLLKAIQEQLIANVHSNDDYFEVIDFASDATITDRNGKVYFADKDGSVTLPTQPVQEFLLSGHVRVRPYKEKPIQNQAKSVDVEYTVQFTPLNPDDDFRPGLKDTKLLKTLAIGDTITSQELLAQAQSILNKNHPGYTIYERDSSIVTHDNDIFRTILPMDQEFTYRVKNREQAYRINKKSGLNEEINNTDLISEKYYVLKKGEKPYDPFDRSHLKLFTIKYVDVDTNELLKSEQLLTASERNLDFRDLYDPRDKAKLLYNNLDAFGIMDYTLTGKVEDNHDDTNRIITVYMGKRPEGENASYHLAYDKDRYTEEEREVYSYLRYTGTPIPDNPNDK

Data set [6] has as its target T5, PEGylated SK N255C (SEQ ID NO 46).
T5 chain: T2 chain with C173D, N255C

In data set [7] the target is T6, PEGylated SK Ser 258 Cys (SEQ ID NO 49).
T6 chain: T2 chain with C173D, S258C

Substitutions are numbered along the chain they refer to. Several values for one entry are separate records, joined by “and”; a condition that tells them apart may be missing. Equal entries are not always repeated.

B1: human plasminogen (HPG) (protein)
chain: KVYLSECKTGNGKNYRGTMSKTKNGITCQKWSSTSPHRPRFSPATHPSEGLEENYCRNPDNDPQGPWCYTTDPEKRYDYCDILECEEECMHCSGENYDGKISKTMSGLECQAWDSQSPHAHGYIPSKFPNKNLKKNYCRNPDRELRPWCFTTDPNKRWELCDIPRCTTPPPSSGPTYQCLKGTGENYRGNVAVTVSGHTCQHWSAQTPHTHNRTPENFPCKNLDENYCRNPDGKRAPWCHTTNSQVRWEYCKIPSCDSSPVSTEQLAPTAPPELTPVVQDCYHGDGQSYRGTSSTTTTGKKCQSWSSMTPHRHQKTPENYPNAGLTMNYCRNPDADKGPWCFTTDPSVRWEYCNLKKCSGTEASVVAPPPVVLLPDVETPSEEDCMFGNGKGYRGKRATTVTGTPCQDWAAQEPHRHSIFTPETNPRAGLEKNYCRNPDGDVGGPWCYTTNPRKLYDYCDVPQCAAPSFDCGKPQVEPKKCPGRVVGGCVAHPHSWPWQVSLRTRFGMHFCGGTLISPEWVLTAAHCLEKSPRPSSYKVILGAHQEVNLEPHVQEIEVSRLFLEPTRKDIALLKLSSPAVITDKVIPACLPSPNYVVADRTECFITGWGETQGTFGAGLLKEAQLPVIENKVCNRYEFLNGRVQSTELCAGHLAGGTDSCQGDSGGPLVCFEKDKYILQGVTSWGLGCARPNKPGVYVRVSRFVTWIEGVMRNN
Consider B1, for which the Km in data set [1] was 0.25 µM and 0.6 µM; in data set [2] it was 0.4 µM; in data set [3], 0.4 µM; in data set [4], 0.4 µM; in data set [5], 0.4 µM; in data set [6], 0.4 µM. Further, the Km in data set [7] is 0.5 µM.

The term Km denotes the concentration of substrate that gives half-maximal velocity.
